Experiments:
[1] = molecular target: the molecule itself; experiment: SEC; SEC profile of cell-free synthesized ORF14 in DDM detergent micelles
[2] = molecular target: the molecule itself; experiment: SEC

| Protein | stoichiometry N [1] | stoichiometry N [2] |
| --- | --- | --- |
| ORF14 (ORF9c) protein, full-length (natural protein, also called OFR14) MLQSCYNFLKEQHCQKASTQKGAEAAVKPLLVPHHVVATVQEIQLQAAVGELLLLEWLAMAVMLLLLCCCLTD | ~9 |  |
| nsp9, full-length (natural protein, also called fl nsp9) NNELSPVALRQMSCAAGTTQTACTDDNALAYYNTTKGGRFVLALLSDLQDLKWARFPKSDGTGTIYTELEPPCRFVTDTPKGPKVKYLYFIKGLNNLNRGMVLGSLAATVRLQ |  | 2 |

Reference: PMC8141814 (Frontiers in Molecular Biosciences, 2021)
